The nanobody polyreactivity screen of Harvey et al. (2022)

Assay: yeast display, Sf9 membrane polyspecificity reagent, FACS + sequencing; frameworks hold sequencing errors
Procedure, shortened: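 Genes from sorted yeast were amplified by colony PCR, read by MiSeq 2 × 250 sequencing and filtered on CDR length. These cells carried a synthetic nanobody library in Saccharomyces cerevisiae BJ5465 and were sorted by FACS into low and high (top ~1%) gates on anti-HA and streptavidin fluorescence. Polyreactivity is labelled according to the gate of origin.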

| Sequence | polyreactivity (PSR sort gate) |
| --- | --- |
| QVQLVESGGGLVQAGGSLRLSCAASGRIVARNAMRWYSQAPGKERELVGAITYSGGSTYYADSVKGRFTISRDNAKNTVYLPMISLKPEDTAVYYCAAETSKRGRRYYYWGQGTQVTVSS | high polyreactivity |
| QVQLVESGGGLVQAGGSLRLSCAASGRIVGINVMGWYRQAPGKERELVAAISYRTGSTYYADSVKGRFTISRDNAKNTVYLQMNSLKPEDTAVYYCDAQRRIRTAWYDYWGQGTQVTVSS | high polyreactivity |
| QVQLVESGGGLVQAGGSLRLSCAASGRIVNFYAMGWYRQAPGKEREFVAAISWSGGSTSYADSVKGRFTISRDTAKKTDYLQMNSLKPEDTAVSYCAVRWSSRSRRYNYWGQGTQVTVSS | high polyreactivity |
| QVQLVESGGGLVQAGGSLRLSCAASGRIVNYYAMGWYRQAPGKERELVAAINSGGSTDYADSVKGRFTISRDNAKNTVYLQMNSLKPEDTAVYYCNAEKTYLYTDIPGYARFGYWGQGTQVTVSS | high polyreactivity |
| QVQLVESGGGLVQAGGSLRLSCAASGRIVRNAMGWYRPAPGKEWELVAAITRSGGSTYYADSVKGRFTISRDNAKKTVYLQMNSLKPEDTAVYYCAARHYRSRDGYSGQGTQVTVSS | high polyreactivity |
| QVQLVESGGGLVQAGGSLRLSCAASGRIVRNAMGWYRQAPGKERELVAAISRSGGSTYDADSVKGRFTISRDNAKNTVYLQMNSLKPEDTAVYYCAKRSTSQSLQVEYWGQGTQVTVSS | high polyreactivity |
| QVQLVESGGGLVQAGGSLRLSCAASGRIVTSNAMGWYRQAPGKERELVAVISRRGGSTYYADYVKGRFTITRDNAKNTVYLQMNSVKPEDTAVYYCARRPYSYTRYEYWGQGTQVTVSS | low polyreactivity |
| QVQLVESGGGLVQAGGSLRLSCAASGRIVWGYAMGWYTPAPGKERDLVATITRGGSTNYADSVKGRFTISRDNAKNTVYLQMNSLKPEDTAVYYCARDWGKSEYDYWGQGTQVTVSS | high polyreactivity |
| QVQLVESGGGLVQAGGSLRLSCAASGRIVYRYAMGWYRQAPGKERELVAAISSGGSTYYADSVKGRFTISRDNAKNTVYLQMNSLKPEDTAVYYCAATWGRGTYYLYYYWGQGTQVTGSS | high polyreactivity |
| QVQLVESGGGLVQAGGSLRLSCAASGRIWSRYAMGWYRQAPGKERELVAAITQSGTSTYYADSVKGRFTFSRDNAKNTVYLQMNSLKPEDTAVYYCNAYRQYRYDYWGQGTQVTVSS | low polyreactivity |
| QVQLVESGGGLVQAGGSLRLSCAASGRIYARNAMGWYIQAPGKERELVAAITRGGSTYYADSVKGRFTISRDNAKNTVYLQMNSLKPEDTAVYYCAASYRGSTYKYYYWGQGTQVTVSS | high polyreactivity |
| QVQLVESGGGLVQAGGSLRLSCAASGRIYGINVMGRYRQAPGKEMELVAAISYRTGSTYYADSVKGRFTISRDNAKNTVYLQMNSLKPEDTEVYYCAVRRPSSYSYGEDYWGQGTQVTVSS | high polyreactivity |
| QVQLVESGGGLVQAGGSLRLSCAASGRIYKSYAMGWYRQAPGKERELVAAIRSGGSTYYADSVKGRFTISRDNAKNTVYLQMKSLKPEDTAVYYCAADRYSYGSNGYPRFEYYYWGQGTQVTVSS | high polyreactivity |
| QVQLVESGGGLVQAGGSLRLSCAASGRIYLTNAMGWYRQAPGKERELVAAITSGGSTYYADSVKGRFTISRDNAKNTVYLQMNSLKPEDTAVYYCNADTDRYWPYEYDYWGQGTQVTVSS | low polyreactivity |
| QVQLVESGGGLVQAGGSLRLSCAASGRIYPKNTMGWYRQERGKERELVAAINWNGGRTYYADSEKGRFTISRDNAKNTVYLPMNSLKPEYTAVYYCAKDGYWDFDYWGQGTQVTVSS | low polyreactivity |
| QVQLVESGGGLVQAGGSLRLSCAASGRIYPTYTMGWYRQAPGKERELVAAINRGGGSTYYADSVKGRFTISRDTAKNTVYLQLICLKPEDTAVYYCTARTYYRSYGYDYWGQGTQVTVSS | low polyreactivity |
| QVQLVESGGGLVQAGGSLRLSCAASGRIYRINALGWYRQAPGKERELVATITSGGGSTYADSVKGRFTISRDNAKNTVYLQMNSLKPEDTAVYFCAARSRIGRYTYDYWGQGTQVTVSS | high polyreactivity |
